This is an account of results in article PMC11606445.

For the test, the target named is PaNOMT9 (Phellodendron amurense). In words: crystal structure.

For the substance PaNOMT9 (enzyme), the stoichiometry N (as a rule, a count of units in the complex or per binding partner) turned out to be 2.
